Data from patent US20260258115A1 (MAPP BIOPHARMACEUTICAL, published 2026).
Where a chain is given by its changes, count along the chain named.

B1: ADI-14345 (antibody, V domains shown)
VH: QITLKESGAEVKKPGASVKVSCKVSGYTLSDFSMHWVRQAPGKGLEWMGSFDPEDGETVDAQKFQGRVTMTEDRSTATAYMELRSLRSEDTAVYYCGTPASAGQVDYWGQGTLVTVSS
VL: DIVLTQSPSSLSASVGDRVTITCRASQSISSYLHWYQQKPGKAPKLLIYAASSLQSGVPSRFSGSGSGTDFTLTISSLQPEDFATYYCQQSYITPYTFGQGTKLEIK
notes: full-length IgG; also called Ab 13
B2: ADI-14364 (antibody, V domains shown)
VH: QVQLVQSGAEVKKPGESLKISCKGSGYSFTSHWIGWVRQMPGKGLEWMGITDPGDSDTRYSPSFQGQVTISADKSISTAYLQWSSLKASDTAMYYCAREPRRWMTTETNGPYYFDNWGQGTLVTVSS
VL: SYVLTQPPSVSVAPGKTARITCGGNNIGSKSVHWYQQKPGQAPVLVIYYDSDRPSGIPERFSGSNSGNTATLTISRVEAGDEADYYCQVWDSSSDNRVFGGGTKVTVL
notes: full-length IgG; also called Ab 32
B3: ADI-14347 (antibody, V domains shown)
VH: EVQLVESGGGLVKPGGSLRLSCAASGFTFRDYYMNWIRQAPGKGLEWVSDISASSSYTNYADSVKGRFTISRDNAKTSLYLQMNSLRAEDTAVYYCAREVVTAMGGYYFDYWGQGTLVTVSS
VL: QSVVTQPPSVSGAPGQRVTISCTGSSSNIGAGYDVHWYQQLPGTAPKLLIYGNNNRPSGVPDRFSGSKSGTSASLAITGLQAEDEADYYCQSYDSSLSGSGVFGTGTKVTVL
notes: full-length IgG; also called Ab 15
B4: ADI-25549 (antibody, V domains shown)
VH: QVQLVQSGGGLVKPGGSLRLSCAASGFTFSSYSMNWVRQAPGKGLEWVSSISSSSSYIYYADSVKGRFTISRDNAKNSLYLQMNSLRAEDTAVYYCARVSSGWYGGGAYYFDYWGQGTLVTVSS
VL: B3 VL with N54S, G99A, S100L, G101Y
notes: full-length IgG
B5: ADI-14367 (antibody, V domains shown)
VH: EVQLLESGGGLVQPGGSLRLSCAASGFTFGSYDMNWVRQAPGKGLEWVSGISGSGDATYYADSVKGRFTISRDNSKNMLYLQMNSLSAEDMAVYYCARDRAFTMKYNSNWYKIYWGQGTMVTVSS
VL: EIVLTQSPGTLSLSPGERATLSCRASQSVTSSYLAWYQQKPGQAPRLLIYGAFSRATGIPDRFSGSGSGTDFTLTISRLEPEDFAVYYCHHYGTSRWTFGQGTKVDIK
notes: full-length IgG; also called Ab 35
B6: ADI-25555 (antibody, V domains shown)
VH: QVQLVQSGGGLVKPGGSLRLSCAASGFTFSSYSMNWVRQAPGKGLEWVSSISSSSSYIYYADSVKGRFTISRDNAKNSLYLQMNSLRAEDTAVYYCARQRGGIAVAGTYFDLWGRGTLVTVSS
VL: QPVLTQPPSVSGAPGQRVTISCTGSSSNIGAGYDVHWYQQLPGTAPKLLIYGNSNRPSGVPDRFSGSKSGTSASLAITGLQAEDEADYYCQSYDSTVVFGGGTKLTVL
notes: full-length IgG
B7: ADI-14340 (antibody, V domains shown)
VH: EVQLVESGGGLVKPGGSLRLSCAASGFTLSSYTMNWVRQAPGRGLEWVSSIYSTSSYIYYADSVKGRFTISRDNAKNSLYLQMNSLRAEDTAVYYCARDSQAVTGTDLYFDSWGQGTLVTVSS
VL: QPGLTQPPSVSVAPGKTARITCGGNNIGRKNVHWYQQKPGQAPILVIYYDSDRPSGIPERFSGSNSGNTATLTISRVEDGDEADYYCQVWDSSNDHVIFGGGTQLTVL
notes: full-length IgG; also called Ab 8
B8: ADI-14337 (antibody, V domains shown)
VH: EVQLVESGGGLVKPGGSLRLSCAASGFTFSSYSMNWVRQAPGKGLEWVSSISSSSSYIYYADSVKGRFTISRDNAKNSLYLQMNSLRAEDTAVYYCAREYYDSSGYTNWFDPWGQGTLVTVSS
VL: QPVLTQPPSVSGAPGQRVTISCTGSSSNIGAGYDVHWYQQLPGTAPKLLIYGNSNRPSGVPDRFSGSKSGTSASLAITGLQAEDEADYYCQSYDSSLAWVFGGGTQLTVL
notes: full-length IgG; also called Ab 5
B9: ADI-14346 (antibody, V domains shown)
VH: EVQLLESGGGLVKPGGSLRLSCAASGFRFSSYSMNWVRQAPGKWLEWVSSISASSSYTDYADSVKGRFTISRDNAKNSLYLQMNSLRAEDTAVYYCAREDYLSSGSLLHWFDPWGQGTLVTVSS
VL: B8 VL with S54N, S96R, A98S, W99V, V100L, Q106K, L107V
notes: full-length IgG; also called Ab 14
B10: ADI-14335 (antibody, V domains shown)
VH: EVQLVESGGGLVQPGRSLRLSCTASGFTFGDYAMSWVRQAPGKGLEWVGFIRSNAFGGTSEYAASVKGRFTISRDDSKSIAYLQMNSLKTEDTAVYYCTRDGIHDYGDSYYYYGMDVWGQGTTVTVSS
VL: DIQLTQSPSSLSASVGDRVTITCRASQTVTTYLNWYQQKPGKAPKLLIYGASSLQSGVPSRFSGSGSGTDFTLTINSLQPEDFATYYCQQTYSTVTFGPGTKVEIK
notes: full-length IgG; also called Ab 3
B11: ADI-14357 (antibody, V domains shown)
VH: EVQLVESGGGVVQPGRSLRLSCAASGFTFSNYAMHWVRQAPGKGLEWVSIISYDGSNKYYADSVKGRFTISRDNSKNTLYLQINSLRTEDTAVYYCARARKRIPIVVVTAPYYYGMDVWGQGTTVTVSS
VL: DIRVTQSPSSLSASVGDRVTITCRASQSISSYLHWYQQQPGKAPNLLIYAASNLQSGVPSRFSGSGSGTDFTLTISSLQPEDFATYYCQQSYTTPHTFGQGTKVEIK
notes: full-length IgG; also called Ab 25
B12: ADI-14344 (antibody, V domains shown)
VH: QVQLVQSGGGLVQPGGSLRLSCAASGFTFRTYALSWVRQAPGKGLEWVSSILGSGGSTYYADSVKGRFTISRDNSKNTLYLQLNSLRAEDTAVYFCAKLAVAGLLHHYYGLDVWGQGTTVTVSS
VL: SYELTQPPSVSVSPGQTASITCSGDKLENKYACWYQQKPGQSPVLLIYQDTKRPSGIPERFSGSNSGTTATLTISGTQALDEADYYCQAWDSSTASVLFGGGTQLTVL
notes: full-length IgG; also called Ab 12
B13: ADI-14333 (antibody, V domains shown)
VH: EVQLVETGGGLVKPGGSLRLSCADSGFPFSSYSMHWVRQAPGKGLEWVASISSSSSFINYADSVKGRFTISRDNAKNSLYLQMNSLRAEDTAVYFCAREAACGGDCYGYYFDYWGQGTLVTVSS
VL: QSVVTQPPSASGAPGQRVTISCTGSSSNIGAGYDVHWYQQLPGTAPKVLISGNSNRPSGVPARFSGSKSGTSASLAITGLQAEDEADYYCQSYDSSLSGSVFGGGTQLTVL
notes: full-length IgG; also called Ab 1

Each binder was assayed against T1, RSV prefusion F (preF), subtype B (respiratory syncytial virus subtype B) (assay: BLI, IgG).
T1 construct: also called Prefusion subtype B
In the case of B1, the Kd is reported as 5.26 nM. Binder B2 has a Kd of 61.6 nM. In the case of B3, the Kd is reported as 2.54 nM. Work on B4 yielded a Kd of 28.8 nM. In the case of B5, the Kd is reported as 0.269 nM. In the case of B6, the Kd is reported as 44.7 nM. B7 gave a Kd of 98 nM. With B8 the Kd was 2.11 nM. With B9 the Kd was 0.925 nM. B10 showed a Kd of 0.889 nM. With B11 the Kd was 0.306 nM. Binder B12 has a Kd of 0.586 nM. B13 was tested, and the Kd was 0.904 nM.

What follows are binders tested against T2, RSV postfusion F (postF), subtype A (respiratory syncytial virus subtype A, UniProt P03420 26-513) (assay: BLI).
T2 construct: also called Postfusion subtype A; F deltaFP
B1: no binding. B2: no binding. B3: no binding. B4: no binding. B5: no binding. B6: no binding. B7: no binding. B8: no binding. B9: no binding. B10: no binding. B11: no binding. B12: no binding. B13: no binding.

What follows are binders tested against RSV F on RSV subtype B virus (mKate-RSV B 18537) (respiratory syncytial virus B 18537, UniProt P13843 26-574) (assay: cell-based or functional assay).
For B1, the “Neut IC50 subtype B” value was 0.87 µg/mL. For B2, the “Neut IC50 subtype B” value was 2.39 µg/mL. With B3 the “Neut IC50 subtype B” value was 0.05 µg/mL. With B4 the “Neut IC50 subtype B” value was 6.02 µg/mL. In the case of B5, the “Neut IC50 subtype B” value is reported as 0.33 µg/mL. For B6, the “Neut IC50 subtype B” value was 12.1 µg/mL. With B7 the “Neut IC50 subtype B” value was 1.94 µg/mL. With B8 the “Neut IC50 subtype B” value was 0.07 µg/mL. With B9 the “Neut IC50 subtype B” value was 0.07 µg/mL. In the case of B10, the “Neut IC50 subtype B” value is reported as 0.1 µg/mL. In the case of B11, the “Neut IC50 subtype B” value is reported as 0.88 µg/mL. In the case of B12, the “Neut IC50 subtype B” value is reported as 1.2 µg/mL. B13 was tested, and the “Neut IC50 subtype B” value was 0.09 µg/mL.

What follows are binders tested against RSV F on RSV subtype A virus (mKate-RSV A2) (respiratory syncytial virus A2, UniProt P03420 26-574) (assay: cell-based or functional assay).
B1 was tested, and the “Neut IC50 subtype A” value was 2.3 µg/mL. With B2 the “Neut IC50 subtype A” value was 0.03 µg/mL. With B3 the “Neut IC50 subtype A” value was 0.11 µg/mL. For B4, the “Neut IC50 subtype A” value was 11.5 µg/mL. For B5, the “Neut IC50 subtype A” value was 3.94 µg/mL. With B6 the “Neut IC50 subtype A” value was 18.6 µg/mL. In the case of B7, the “Neut IC50 subtype A” value is reported as 6.63 µg/mL. For B8, the “Neut IC50 subtype A” value was 0.1 µg/mL. For B9, the “Neut IC50 subtype A” value was 0.05 µg/mL. B10 was tested, and the “Neut IC50 subtype A” value was 0.32 µg/mL. B11 was tested, and the “Neut IC50 subtype A” value was 1.24 µg/mL. In the case of B12, the “Neut IC50 subtype A” value is reported as 8.68 µg/mL. B13 was tested, and the “Neut IC50 subtype A” value was 0.07 µg/mL.
